Data as given in doi:10.1101/2023.11.05.565221, “Evolutionary origin and structural ligand mimicry by the inserted domain of alpha-integrin proteins” (bioRxiv, 2023).

Molecular target: T1, wildtype αEβ7 ectodomain (human, UniProt P38570 19-1123; P26010 20-723, N-linked glycan at N303 (N321 in the legend of Figure 4))
T1 construct: signal peptide in the construct; integrin alpha-E (CD103) ectodomain, M1-H1123 (limits count on the precursor); integrin beta-7 ectodomain, M1-H723 (limits count on the precursor); Wild-type αE construct 'used for integrin:e-cadherin complex'; The αEβ7 of the BLI assay is not specified; also called integrin αEβ7; source: ExpiCHO cells, α and β co-transfected, secreted, purified (HisTrap, SEC)
Experiment: BLI; Octet Red, 25°C; Fc-tagged E-cadherin ectodomain loaded on Protein A biosensors; αEβ7 500nM to 16.125nM in activating buffer with 0.1% BSA and 0.02% Tween-20; 1:1 model, global fit of three replicates
Conditions: both partners purified

T1 sequence (P38570 19-1123, chain 1 of 2): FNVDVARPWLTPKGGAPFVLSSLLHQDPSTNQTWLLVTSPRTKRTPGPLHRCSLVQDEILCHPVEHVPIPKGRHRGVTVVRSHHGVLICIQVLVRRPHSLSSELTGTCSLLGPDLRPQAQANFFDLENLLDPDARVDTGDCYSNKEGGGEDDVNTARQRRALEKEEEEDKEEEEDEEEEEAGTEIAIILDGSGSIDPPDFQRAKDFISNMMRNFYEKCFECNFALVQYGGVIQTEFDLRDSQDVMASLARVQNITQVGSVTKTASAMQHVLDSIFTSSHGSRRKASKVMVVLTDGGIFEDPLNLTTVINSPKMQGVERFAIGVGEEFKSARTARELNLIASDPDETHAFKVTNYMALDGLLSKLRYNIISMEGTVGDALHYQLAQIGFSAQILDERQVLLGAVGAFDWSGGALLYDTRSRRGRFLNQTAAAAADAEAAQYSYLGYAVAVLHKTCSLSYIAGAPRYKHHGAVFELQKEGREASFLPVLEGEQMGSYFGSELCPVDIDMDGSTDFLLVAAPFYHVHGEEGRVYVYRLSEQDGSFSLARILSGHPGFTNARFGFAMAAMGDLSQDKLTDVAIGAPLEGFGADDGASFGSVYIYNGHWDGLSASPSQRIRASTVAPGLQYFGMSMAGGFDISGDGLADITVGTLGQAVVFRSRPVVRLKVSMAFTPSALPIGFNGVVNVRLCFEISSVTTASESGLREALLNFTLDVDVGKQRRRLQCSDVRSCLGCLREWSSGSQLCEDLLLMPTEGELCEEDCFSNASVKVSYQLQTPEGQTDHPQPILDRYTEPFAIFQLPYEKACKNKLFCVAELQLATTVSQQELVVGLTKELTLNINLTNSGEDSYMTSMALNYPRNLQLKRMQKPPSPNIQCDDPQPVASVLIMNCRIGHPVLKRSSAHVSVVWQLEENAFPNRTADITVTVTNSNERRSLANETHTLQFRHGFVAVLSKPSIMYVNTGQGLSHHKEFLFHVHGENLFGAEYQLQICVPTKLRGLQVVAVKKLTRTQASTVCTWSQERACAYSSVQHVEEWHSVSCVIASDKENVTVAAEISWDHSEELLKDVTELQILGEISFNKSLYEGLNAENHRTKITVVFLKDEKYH
T1 sequence (P26010 20-723, chain 2 of 2): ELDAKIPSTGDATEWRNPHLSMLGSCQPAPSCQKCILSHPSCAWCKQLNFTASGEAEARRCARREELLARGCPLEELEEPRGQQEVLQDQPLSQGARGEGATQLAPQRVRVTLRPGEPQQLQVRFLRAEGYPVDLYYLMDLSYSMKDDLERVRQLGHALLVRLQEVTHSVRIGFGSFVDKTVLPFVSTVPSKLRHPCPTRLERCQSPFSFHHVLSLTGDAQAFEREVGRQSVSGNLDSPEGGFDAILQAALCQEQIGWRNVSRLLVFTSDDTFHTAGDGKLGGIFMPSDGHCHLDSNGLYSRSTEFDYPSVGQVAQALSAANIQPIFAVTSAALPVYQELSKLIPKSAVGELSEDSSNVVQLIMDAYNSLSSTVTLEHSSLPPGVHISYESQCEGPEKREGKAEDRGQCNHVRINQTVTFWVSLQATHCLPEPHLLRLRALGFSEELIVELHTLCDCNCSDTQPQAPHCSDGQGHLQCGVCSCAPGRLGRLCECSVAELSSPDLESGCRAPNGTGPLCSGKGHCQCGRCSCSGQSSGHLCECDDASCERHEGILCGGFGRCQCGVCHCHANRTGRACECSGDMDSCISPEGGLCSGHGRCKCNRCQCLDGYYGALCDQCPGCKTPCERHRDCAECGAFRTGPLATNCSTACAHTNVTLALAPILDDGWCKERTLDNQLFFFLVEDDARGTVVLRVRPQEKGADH

B1: Fc-tagged E-cadherin ectodomain (Fc fusion, UniProt P12830 155-698, looked up)
chain: DWVIPPISCPENEKGPFPKNLVQIKSNKDKEGKVFYSITGQGADTPPVGVFIIERETGWLKVTEPLDRERIATYTLFSHAVSSNGNAVEDPMEILITVTDQNDNKPEFTQEVFKGSVMEGALPGTSVMEVTATDADDDVNTYNAAIAYTILSQDPELPDKNMFTINRNTGVISVVTTGLDRESFPTYTLVVQAADLQGEGLSTTATAVITVTDTNDNPPIFNPTTYKGQVPENEANVVITTLKVTDADAPNTPAWEAVYTILNDDGGQFVVTTNPVNNDGILKTAKGLDFEAKQQYILHVAVTNVVPFEVSLTTSTATVTVDVLDVNEAPIFVPPEKRVEVSEDFGVGQEITSYTAQEPDTFMEQKITYRIWRDTANWLEINPDTGAISTRAELDREDFEHVKNSTYTALIIATDNGSPVATGTGTLLLILSDVNDNAPIPEPRTIFFCERNPKPQVINIIDADLPPNTSPFTAELTHGASANWTIQYNDPTQESIILKPKMALEVGDYKINLKLMDNQNKDQVTTLEVSVCDCEGAAGVCRKA
notes: E-cadherin ectodomain, D155-A698 (limits count on the precursor); Held on Protein A biosensors by the Fc; source: ExpiCHO cells, secreted, purified (HiTrap Protein G, SEC); not shown: Fc (human), C-terminal, kept
Kd: 51 ± 7.9 nM
